Laboratory results published in patent publication US20180112003A1 (UNIVERSITY OF SOUTHERN CALIFORNIA, published 2018).

Legend:
[1] = biological target: T1, human luteinizing hormone receptor (LHR) (human, UniProt P22888 27-699); assay: flow cytometry on ES-2 human ovarian carcinoma cells; ratio of antibody MFI to isotype MFI
T1 construct: Endogenous LHR on human ovarian carcinoma cell lines (ES-2, SKOV3); also called LHR on ES-2 human ovarian carcinoma cells; LHR on SKOV3 cells
Source text: (§1) Antibodies against the […] extracellular hormone binding domain of LHR were generated by repeated immunization of 4 week-old-BALB/c and NIH Swiss mice with genetically engineered LHR-Fc. As shown below in FIG. 3, the leader sequence and first part of the human LHR G-protein was used to generate the LHR-Fc used in the immunization and screening methods to generate and identify high binding antibodies. […] A typical flow cytometry screen of hybridomas positive by initial ELISA screen using LHR-Fc coated plates is shown below in FIG. 4 using the ES-2 ovarian carcinoma cell line. […] These few candidate hybridomas were then subcloned by dilution in 96 well plates and expanded for freezing in vials. After further screening by flow cytometry, specific subclones were selected for large scale production using 2L vessels (GRrex, 100L, Wolfson). Filtered supernatants were then subjected to antibody purification using tandon protein A or G and ion exchange chromatography methods performed routinely in the laboratory. Once purified, five antibody subclones designated 8B7-3, 5F4-21, 5B1-1, 2H11-37, and 138-2 were sequenced to facilitate the engineering of single chain genes used for the construction of LHR CARs described below.

[2] = biological target: T1, human luteinizing hormone receptor (LHR); assay: flow cytometry screen of LHR-Fc ELISA positive hybridomas on ES-2 ovarian carcinoma cells; ratio of antibody MFI to isotype MFI
Source text: as §1

T1 sequence (P22888 27-699 limits assumed): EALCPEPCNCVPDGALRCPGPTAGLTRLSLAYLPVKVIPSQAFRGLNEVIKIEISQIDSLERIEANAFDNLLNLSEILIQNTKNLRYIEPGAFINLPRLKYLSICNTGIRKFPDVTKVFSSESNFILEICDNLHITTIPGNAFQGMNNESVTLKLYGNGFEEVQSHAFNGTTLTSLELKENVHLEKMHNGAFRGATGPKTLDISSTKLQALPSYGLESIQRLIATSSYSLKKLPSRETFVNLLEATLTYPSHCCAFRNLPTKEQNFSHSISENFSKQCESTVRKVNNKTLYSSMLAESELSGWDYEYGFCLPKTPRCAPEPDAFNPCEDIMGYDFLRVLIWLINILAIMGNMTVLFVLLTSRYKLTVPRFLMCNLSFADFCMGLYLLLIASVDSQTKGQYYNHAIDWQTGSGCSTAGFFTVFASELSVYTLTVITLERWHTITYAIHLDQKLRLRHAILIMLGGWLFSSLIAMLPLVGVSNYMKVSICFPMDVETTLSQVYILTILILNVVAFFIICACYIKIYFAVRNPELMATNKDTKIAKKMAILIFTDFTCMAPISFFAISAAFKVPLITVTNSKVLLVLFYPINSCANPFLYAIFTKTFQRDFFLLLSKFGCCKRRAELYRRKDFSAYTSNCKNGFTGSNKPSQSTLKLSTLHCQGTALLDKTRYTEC

Row | Binder | binding result [1] | binding result [2]
1 | LHR Antibody #5F4-21 (antibody, V domains shown, Mouse monoclonal antibody from a hybridoma subclone) VH: EVQLQESGPDLVKPSQSLSLTCTVTGYSITSGYGWHWIRQFPGNKLEWMGYIHYSGSTTYNPSLKSRISISRDTSKNQFFLQLNSVTTEDTATYYCARSLRYWGQGTTLTVSS VL: DIVMTQTPAIMSASPGQKVTITCSASSSVNYMHWYQQKLGSSPKLWIYDTSKLAPGVPARFSGSGSGTSYSLTISSMEAEDAASYFCHQWSSYPYTFGSGTKLEIK | binds | –
2 | LHR Antibody #8B7-3 (antibody, V domains shown, Mouse monoclonal antibody from a hybridoma; also called hybridoma 8B7) VH: QVKLQQSGPELVKPGASVKISCKASGYSFTGYYMHWVKQSHGNILDWIGYIYPYNGVSSYNQKFKGKATLTVDKSSSTAYMELRSLTSEDSAVYYCARERGLYQLRAMDYWGQGTSVTVSS VL: DIVLTQTPATLSVTPGDSVSLSCRASQSISNNLHWYQQKSHESPRLLIKNASQSISGIPSKFSGSGSGTDFTLRINSVETEDFGMYFCQQSNSWPYTFGSGTKLEIK | – | binds
